Experimental data reported in patent US20160282364A1 (published 2016).

Key:
31 + insulin = test: fluorescence polarization; Kapp, with 2.5 uM insulin
31 = test: fluorescence polarization; without insulin

Kd (31 + insulin): 280 nM
Kd 31: 42 nM
B1: IDE (enzyme)
chain: MNNPAIKRIGNHITKSPEDKREYRGLELANGIKVLLISDPTTDKSSAALDVHIGSLSDPPNIAGLSHFLQHMLFLGTKKYPKENEYSQFLSEHAGSSNAFTSGEHTNYYFDVSHEHLEGALDRFAQFFLSPLFDESAKDREVNAVDSEHEKNVMNDAWRLFQLEKATGNPKHPFSKFGTGNKYTLETRPNQEGIDVRQELLKFHSAYYSSNLMAVVVLGRESLDDLTNLVVKLFSEVENKNVPLPEFPEHPFQEEHLKQLYKIVPIKDIRNLYVTFPIPDLQKYYKSNPGHYLGHLIGHEGPGSLLSELKSKGWVNTLVGGQKEGARGFMFFIINVDLTEEGLLHVEDIILHMFQYIQKLRAEGPQEWVFQELKDLNAVAFRFKDKERPRGYTSKIAGILHYYPLEEVLTAEYLLEEFRPDLIEMVLDKLRPENVRVAIVSKSFEGKTDRTEEWYGTQYKQEAIPDEVIKKWQNADLNGKFKLPTKNEFIPTNFEILPLEKEATPYPALIKDTAMSKLWFKQDDKFFLPKANLNFEFFSPFAYVDPLHSNMAYLYLELLKDSLNEYAYAAELAGLSYDLQNTIYGMYLSVKGYNDKQPILLKKIIEKMATFEIDEKRFEIIKEAYMRSLNNFRAEQPHQHAMYYLRLLMTEVAWTKDELKEALDDVTLPRLKAFIPQLLSRLHIEALLHGNITKQAALGIMQMVEDTLIEHAHTKPLLPSQLVRYREVQLPDRGWFVYQQRNEVHNNSGIEIYYQTDMQSTSENMFLELFAQIISEPAFNTLRTKEQLGYIVFSGPRRANGIQGLRFIIQSEKPPHYLESRVEAFLITMEKSIEDMTEEAFQKHIQALAIRRLDKPKKLSAESAKYWGEIISQQYNFDRDNTEVAYLKTLTKEDIIKFYKEMLAVDAPRRHKVSVHVLAREMDSNPVVGEFPAQNDINLSQAPALPQPEVIQNMTEFKRGLPLFPLVKPHINFMAAKL
